From US20110159588A1 (published 2011)

B1: TECD-FLAG (extracellular domain of TMEFF2 fused to a FLAG tag at the carboxy-terminus) (other)
chain: FPTSLSDCQTPTGWNCSGYDDRENDLFLCDTNTCKFDGECLRIGDTVTCVCQFKCNNDYVPVCGSNGESYQNECYLRQAACKQQSEILVVSEGSCATDAGSGSGDGVHEGSGETSQKETSTCDICQFGAECDEDAEDVWCVCNIDCSQTNFNPLCASDGKSYDNACQIKEASCQKQEKIEVMSLGRCQDNTTTTTKSEDGHYARTDYAENANKLEESAREHHIPCPEHYNGFCMHGKCEHSINMQEPSCRCDAGYTGQHCEKKWRADYKDDDDK
notes: Expressed in mammalian cells, purified from supernatant; also called FLAG-tagged TECD; TMEFF2-ECD
B2: TECD-Fc (extracellular domain of TMEFF2 fused to the Fc portion of human immunoglobulin gamma at the carboxy-terminus) (Fc fusion)
chain: FPTSLSDCQTPTGWNCSGYDDRENDLFLCDTNTCKFDGECLRIGDTVTCVCQFKCNNDYVPVCGSNGESYQNECYLRQAACKQQSEILVVSEGSCATDAGSGSGDGVHEGSGETSQKETSTCDICQFGAECDEDAEDVWCVCNIDCSQTNFNPLCASDGKSYDNACQIKEASCQKQEKIEVMSLGRCQDNTTTTTKSEDGHYARTDYAENANKLEESAREHHIPCPEHYNGFCMHGKCEHSINMQEPSCRCDAGYTGQHCEKK
notes: also called TECD-hFc; Fc-tagged TECD; not shown: subc

What was measured:
[1] = target: T1, EGFR (human epithelial growth factor receptor) ECD fused to hFcγ (human, UniProt P00533 25-645); assay: ELISA, TECD-FLAG coat, anti-human Fc-HRP detection
T1 construct: extracellular domain; not shown: human Fc gamma
Protocol: (§1) For the TMEFF2 coat format, MaxiSorp 96-well microwell plates (Thermo Scientific Nunc, Roskilde, Denmark) were coated with 1 μg/ml TECD-FLAG in 50 mM carbonate buffer, pH 9.6, overnight at 4° C. Plates were washed with PBS, pH 7.4 containing 0.05% polysorbate 20 and blocked with 0.5% bovine serum albumin (BSA), 15 parts per million Proclin 300 in phosphate buffered saline (PBS), pH 7.4 for 1 hour at room temperature. Serially diluted PDGF-AA, PDGF-AB or PDGF-BB in PBS containing 0.5% BSA, 0.05% polysorbate 20, and 15 parts per million Proclin 300 were added to the plates. After a 2-hour incubation, PDGF bound to the plates was detected by incubating biotinylated goat anti-human PDGF-AA or PDGF-AB or PDGF-BB in the wells for 1 hour, followed by horseradish peroxidase conjugated streptavidin (GE Healthcare, Piscataway, N.J.) for 30 min. Bound Fc-fusion protein was detected by adding goat anti-hman Fc-HRP (Jackson ImmunoResearch, West Grove, Pa.). After a final wash, the substrate 3,3′,5,5′-tetramethyl benzidine (Kirkegaard & Perry Laboratories) was added to plates and the reaction was stopped by adding 1 M phosphoric acid. Plates were washed with PBS, pH 7.4, containing 0.05% Tween 20, between steps and all incubation steps were performed at room temperature on an orbital shaker. Absorbance was read at 450 nm on a multiskan Ascent reader (Thermo Scientific, Hudson, N.H.). The titration curves were fitted using a four-parameter nonlinear regression curve-fitting program (KaleidaGraph, Synergy software, Reading, Pa.).
(§2) For testing binding of Fc-fusion proteins or his-tagged proteins to TECD-Flag coated on the plate, horseradish peroxidase conjugated goat anti-human Fc (Jackson ImmunoResearch, West Grove, Pa.) or biotinylated anti-His (Penta-His, Qiagen, Valencia, Calif.) followed by horseradish peroxidase conjugated streptavidin was used for detection. For testing TECD-Flag coat, serially diluted mouse anti-Flag (Sigma, St. Louis, Mo.) was added to the plates followed by horseradish peroxidase conjugated goat anti-mouse Fc (Jackson ImmunoResearch). Serially diluted PDGF-AA was also added to wells coated with goat anti-PDGF for comparison to wells coated with 1 μg/ml TECD-Flag. Bound PDGF-AA was detected as described above.

[2] = target: T2, HER2 (human EGF-like receptor 2) ECD fused to hFcγ (human, UniProt P04626 23-652); assay: ELISA, TECD-FLAG coat, anti-human Fc-HRP detection
T2 construct: extracellular domain; not shown: human Fc gamma
Protocol: as §1, §2

[3] = target: T3, HER3 (human EGF-like receptor 3) ECD fused to hFcγ (human, UniProt P21860 20-643); assay: ELISA, TECD-FLAG coat, anti-human Fc-HRP detection
T3 construct: extracellular domain; not shown: human Fc gamma
Protocol: as §1, §2

[4] = target: T4, HER4 (human EGF-like receptor 4) ECD fused to hFcγ (human, UniProt Q15303 26-651); assay: ELISA, TECD-FLAG coat, anti-human Fc-HRP detection
T4 construct: extracellular domain; not shown: human Fc gamma
T4 sequence (looked up): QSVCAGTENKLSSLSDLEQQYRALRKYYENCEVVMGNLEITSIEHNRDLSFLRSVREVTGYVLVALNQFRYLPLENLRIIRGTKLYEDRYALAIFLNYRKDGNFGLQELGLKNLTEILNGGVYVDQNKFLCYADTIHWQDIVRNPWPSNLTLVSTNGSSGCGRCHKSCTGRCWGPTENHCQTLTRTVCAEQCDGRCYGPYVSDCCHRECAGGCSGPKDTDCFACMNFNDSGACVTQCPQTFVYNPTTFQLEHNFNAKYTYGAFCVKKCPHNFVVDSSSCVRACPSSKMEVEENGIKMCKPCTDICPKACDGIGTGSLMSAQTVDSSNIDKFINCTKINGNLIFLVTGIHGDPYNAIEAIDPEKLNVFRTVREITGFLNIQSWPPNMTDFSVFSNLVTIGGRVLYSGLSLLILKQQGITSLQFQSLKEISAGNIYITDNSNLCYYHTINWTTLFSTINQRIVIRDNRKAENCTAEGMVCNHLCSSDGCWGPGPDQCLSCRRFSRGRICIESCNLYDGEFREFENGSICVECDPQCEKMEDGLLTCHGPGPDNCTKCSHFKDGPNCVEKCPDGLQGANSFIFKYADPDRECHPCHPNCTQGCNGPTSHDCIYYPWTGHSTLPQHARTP
Protocol: as §1, §2

[5] = target: B1; assay: ELISA, TECD-FLAG coat, anti-human Fc-HRP detection
Protocol: as §1, §2

[6] = target: B2; assay: ELISA, PDGF coat, anti-human Fc-HRP detection
Protocol: For the PDGF coat format, plates were coated with 1 μg/ml PDGF-AA, PDGF-AB, PDGF-BB, PDGF-CC, or PDGF-DD. Serially diluted TECD-Fc was added to the plates. Bound TECD-Fc was detected using horseradish peroxidase conjugated goat anti-human Fc (Jackson ImmunoResearch, West Grove, Pa.).
(§3) To confirm that the binding observed is indeed due to the interaction between PDGF-AA and TMEFF2-ECD, we then immobilized the PDGF ligands on the plates, and applied the TMEFF2-ECD fused to a different tag, TECD-Fc, as an analyte.

[7] = target: T5, recombinant human PDGF-AA (human, UniProt P04085 87-211, limits assumed); assay: co-immunoprecipitation with anti-gD mAb from transfected 293 cells, anti-PDGF-A blot
T5 construct: Bought homodimer
Protocol: For binding of PDGF ligands to membrane-bound TMEFF2 proteins, 293 cells were transfected with the various TMEFF2 constructs and changed to fresh growth medium containing 5 μg/ml PDGF-AA or AB 48 hours after transfection. After 1 hour of incubation unbound PDGF ligands were washed away with ice cold PBS and cells were lysed in lysis buffer containing 50 mM Tris pH 8.0, 150 mM NaCl, 1 mM EDTA, 1% NP-40, and protease and phosphatase inhibitors, pre-cleared with protein G SEPHAROSE, and immunoprecipitated with anti-TMEFF2, anti-PDGF, or anti-gD antibodies. The immune complexes were dissociated with SDS sample buffer with (reducing condition) or without (non-reducing condition) β-mercaptoethanol and resolved by 4-20% Tris-Glycine SDS PAGE, transferred to nitrocellulose membranes, and detected with the indicated antibodies using enhanced chemiluminescence.
TMEFF2 contains 2 FS modules and an EGF-like domain. To dissect which domain(s) of TMEFF2 is/are involved in its interaction with PDGF-AA, Herpes simplex type 1 glycoprotein D (gD)-epitope tagged deletion mutants of TMEFF2 were made and examined for their ability to bind PDGF-AA when expressed on the surface of 293 cells (FIG. 4). As expected, PDGF-AA co-immunoprecipitated with gD-tagged full-length TMEFF2 by an anti gD monoclonal antibody. […]

[8] = target: T6, recombinant human soluble PDGF receptor α extracellular domain (PDGF sRα) (human, UniProt P16234 24-528, biotinylated using biotin-X-NHS in the ELISAs (sRα-bio); sites not stated); assay: ELISA, PDGF coat, sRα-bio, streptavidin-HRP detection (FIG. 9B)
T6 construct: extracellular domain; also called sRα-bio; soluble PDGFRα extracellular domain
Protocol: FIG. 9 TECD-Fc competes with PDGF sRα for PDGF-AA binding. (A) PDGF-AA, but not AB, BB, CC or DD, binds to TECD-Fc. TECD-Fc was applied to wells coated with recombinant human PDGF-AA, AB, BB, CC or DD and detected with HRP-conjugated anti-human Fcγ. (B) sRα binds to all three recombinant human PDGF: AA, AB and BB. Biotinylated recombinant sRα (sRα-bio) was applied to wells coated with recombinant human PDGF-AA, AB, BB, CC or DD and detected with streptavidin-HRP. (C) 10 ng/ml TECD-Fc was mixed with increasing concentrations of sRα-bio and applied to PDGF-AA coated wells. Binding between sRα and PDGF-AA was detected using streptavidin-HRP.
as §3

T3 sequence (P21860 20-643): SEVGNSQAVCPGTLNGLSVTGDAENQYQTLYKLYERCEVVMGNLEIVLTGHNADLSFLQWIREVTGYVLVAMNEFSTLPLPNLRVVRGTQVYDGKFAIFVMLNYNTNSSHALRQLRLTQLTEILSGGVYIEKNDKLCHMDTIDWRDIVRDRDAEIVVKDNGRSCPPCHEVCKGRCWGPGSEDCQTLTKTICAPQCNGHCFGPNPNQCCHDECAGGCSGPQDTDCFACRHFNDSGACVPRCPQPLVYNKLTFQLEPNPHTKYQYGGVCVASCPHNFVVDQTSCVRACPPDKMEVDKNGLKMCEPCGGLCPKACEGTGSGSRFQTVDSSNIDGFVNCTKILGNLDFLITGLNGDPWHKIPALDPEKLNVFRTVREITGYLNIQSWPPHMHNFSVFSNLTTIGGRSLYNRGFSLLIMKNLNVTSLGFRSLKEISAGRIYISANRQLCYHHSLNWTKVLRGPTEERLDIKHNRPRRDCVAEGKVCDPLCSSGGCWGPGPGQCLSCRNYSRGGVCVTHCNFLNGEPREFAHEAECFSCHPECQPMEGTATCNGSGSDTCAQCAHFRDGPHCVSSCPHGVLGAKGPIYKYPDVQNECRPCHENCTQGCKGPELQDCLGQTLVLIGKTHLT
T6 sequence (P16234 24-528): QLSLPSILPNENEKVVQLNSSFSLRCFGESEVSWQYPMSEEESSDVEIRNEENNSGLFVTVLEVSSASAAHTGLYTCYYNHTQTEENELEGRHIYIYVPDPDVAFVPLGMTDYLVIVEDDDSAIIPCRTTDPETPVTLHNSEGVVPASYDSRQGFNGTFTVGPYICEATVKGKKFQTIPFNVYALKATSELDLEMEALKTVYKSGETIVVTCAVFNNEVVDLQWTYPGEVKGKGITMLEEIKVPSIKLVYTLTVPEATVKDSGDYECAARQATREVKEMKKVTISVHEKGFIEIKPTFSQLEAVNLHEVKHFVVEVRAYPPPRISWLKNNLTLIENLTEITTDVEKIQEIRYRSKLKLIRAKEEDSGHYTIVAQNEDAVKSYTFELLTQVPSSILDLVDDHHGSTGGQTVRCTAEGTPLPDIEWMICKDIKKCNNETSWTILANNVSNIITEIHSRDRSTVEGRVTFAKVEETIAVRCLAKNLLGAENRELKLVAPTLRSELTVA

B1
binding result [1]: no binding
binding result [2]: no binding
binding result [3]: no binding
binding result [4]: no binding

B2
binding result [5]: no binding

B3: recombinant human PDGF-CC (ligand, UniProt Q9NRA1 235-345, looked up)
chain: VVDLNLLTEEVRLYSCTPRNFSVSIREELKRTDTIFWPGCLLVKRCGGNCACCLHNCNECQCVPSKVTKKYHEVLQLRPKTGVRGLHKSLTDVALEHHEECDCVCRGSTGG
notes: Bought homodimer
binding result [6]: no binding

B4: gD-TMEFF2-ΔFS I (gD-tagged TMEFF2 lacking the N-terminal follistatin module FS I) on 293 cells (receptor)
chain: KYALADASLKMADPNRFRGKDLPVLSGRCDICQFGAECDEDAEDVWCVCNIDCSQTNFNPLCASDGKSYDNACQIKEASCQKQEKIEVMSLGRCQDNTTTTTKSEDGHYARTDYAENANKLEESAREHHIPCPEHYNGFCMHGKCEHSINMQEPSCRCDAGYTGQHCEKKDYSVLYVVPGPVRFQYVLIAAVIGTIQIAVICVVVLCITRKCPRSNRIHRQKQNTGHYSSDNTTRASTRLI
notes: Deletion mutant; The true chain lacks the region up to and including FS I
binding result [7]: no binding (tested: 5 µg/ml)

B5: recombinant human PDGF-BB (ligand, UniProt P01127 82-190, looked up)
chain: SLGSLTIAEPAMIAECKTRTEVFEISRRLIDRTNANFLVWPPCVEVQRCSGCCNNRNVQCRPTQVQLRPVQVRKIEIVRKKPIFKKATVTLEDHLACKCETVAAARPVT
notes: Bought homodimer
binding result [6]: no binding
binding result [8]: binds
